Drawing on PMC10397247, this text covers interaction score for 4 molecules.

One test addresses T1, 4H2760-bH.
T1 chain: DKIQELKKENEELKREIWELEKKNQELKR
As to the kind of experiment: two-hybrid library CCNG1.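 Further: natural log of median RNA to DNA barcode read ratio; higher means stronger binding.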

For a further test, the target named is T2, 4H2859-bH.
T2 chain: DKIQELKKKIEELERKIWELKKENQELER
The experiment in a line: two-hybrid library CCNG1.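 Further: natural log of median RNA to DNA barcode read ratio; higher means stronger binding.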

A further test deals with T3, 4H2931-bH.
T3 chain: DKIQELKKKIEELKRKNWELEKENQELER
As to the kind of experiment: two-hybrid library CCNG1.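 Further: natural log of median RNA to DNA barcode read ratio; higher means stronger binding.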

Another test has as its target T4, 4H3041-bH.
T4 chain: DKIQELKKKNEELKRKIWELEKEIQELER
As to the kind of experiment: two-hybrid library CCNG1.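 Further: natural log of median RNA to DNA barcode read ratio; higher means stronger binding.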

For another test, the target named is T5, 4H3297-bH.
T5 chain: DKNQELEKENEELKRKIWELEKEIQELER
The experiment in a line: two-hybrid library CCNG1.

The target of the next test is T6, 4H3364-bH.
T6 chain: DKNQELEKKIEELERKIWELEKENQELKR
The experiment in a line: two-hybrid library CCNG1.

A further test deals with T7, 4H3381-bH.
T7 chain: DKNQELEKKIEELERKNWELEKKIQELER
As to the kind of experiment: two-hybrid library CCNG1.

In another test the target is T8, 4H349-bH.
T8 chain: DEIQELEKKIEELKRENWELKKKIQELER
As to the kind of experiment: two-hybrid library CCNG1.

Another test addresses T9, 4H40-bH.
T9 chain: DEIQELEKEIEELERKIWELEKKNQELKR
The experiment in a line: two-hybrid library CCNG1.

Another test deals with T10, 4H4073-bA.
T10 chain: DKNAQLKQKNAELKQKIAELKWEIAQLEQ
The experiment in a line: two-hybrid library CCNG1.

For the next test, the target named is T11, 4H56-bH.
T11 chain: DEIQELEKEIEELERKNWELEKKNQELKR
As to the kind of experiment: two-hybrid library CCNG1.

A further test concerns the target T12, 4H730-bH.
T12 chain: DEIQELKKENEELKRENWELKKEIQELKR
The experiment in a line: two-hybrid library CCNG1.

In another test the target is T13, 4H796-bH.
T13 chain: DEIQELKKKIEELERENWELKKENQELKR
The experiment in a line: two-hybrid library CCNG1.

The target in the next test is T14, 4H932-bH.
T14 chain: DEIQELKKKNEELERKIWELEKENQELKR
The experiment in a line: two-hybrid library CCNG1.

A further test concerns the target T15, 4H949-bH.
T15 chain: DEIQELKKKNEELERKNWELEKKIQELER
The experiment in a line: two-hybrid library CCNG1.

In a further test the target is T16, O16-bN.
T16 chain: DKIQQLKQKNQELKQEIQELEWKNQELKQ
As to the kind of experiment: two-hybrid library CCNG1.

The target in the next test is T17, 4H3414-bA.
T17 chain: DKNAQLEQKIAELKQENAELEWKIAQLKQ
As to the kind of experiment: two-hybrid library CCNG1.

A further test concerns the target T18, 4H3631-bA.
T18 chain: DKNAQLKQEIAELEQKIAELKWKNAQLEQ
As to the kind of experiment: two-hybrid library CCNG1.

Another test has as its target T19, 4H3638-bA.
T19 chain: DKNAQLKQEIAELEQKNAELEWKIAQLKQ
As to the kind of experiment: two-hybrid library CCNG1.

A further test has as its target T20, 4H3817-bA.
T20 chain: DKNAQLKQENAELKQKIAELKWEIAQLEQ
As to the kind of experiment: two-hybrid library CCNG1.

In a further test the target is T21, 4H3974-bA.
T21 chain: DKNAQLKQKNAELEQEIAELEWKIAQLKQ
The experiment in a line: two-hybrid library CCNG1.

In another test the target is T22, 4H570-bA.
T22 chain: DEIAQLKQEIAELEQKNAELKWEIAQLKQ
The experiment in a line: two-hybrid library CCNG1.

The target in the next test is T23, 4H584-bA.
T23 chain: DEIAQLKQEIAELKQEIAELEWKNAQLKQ
As to the kind of experiment: two-hybrid library CCNG1.

Another test concerns the target T24, 4H619-bA.
T24 chain: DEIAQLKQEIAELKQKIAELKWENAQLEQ
The experiment in a line: two-hybrid library CCNG1.

In the next test the target is T25, 4H850-bA.
T25 chain: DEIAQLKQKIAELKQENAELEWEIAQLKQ
The experiment in a line: two-hybrid library CCNG1.

The target of a further test is T26, 4H906-bA.
T26 chain: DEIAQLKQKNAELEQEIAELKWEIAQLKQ
As to the kind of experiment: two-hybrid library CCNG1.

A further test concerns the target T27, 4H264-bH.
T27 chain: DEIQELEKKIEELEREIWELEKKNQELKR
The experiment in a line: two-hybrid library CCNG1.

A further test deals with T28, 4H3010-bA.
T28 chain: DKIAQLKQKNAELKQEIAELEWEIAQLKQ
The experiment in a line: two-hybrid library CCNG1.

The next test concerns the target T29, O8-bA.
T29 chain: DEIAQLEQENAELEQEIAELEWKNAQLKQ
The experiment in a line: two-hybrid library CCNG1.

The target in the next test is T30, P2-AA-1HAA-D.
T30 chain: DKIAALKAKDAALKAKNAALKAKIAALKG
As to the kind of experiment: two-hybrid library CCmax. The conditions noted are these: mean of both orientations.

In another test the target is T31, P2-AA-1HAA-E.
T31 chain: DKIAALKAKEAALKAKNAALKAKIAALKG
The experiment in a line: two-hybrid library CCmax. The conditions noted are these: mean of both orientations.

The target in a further test is T32, P2-AA-1HAA-I.
T32 chain: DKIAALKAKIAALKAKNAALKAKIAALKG
As to the kind of experiment: two-hybrid library CCmax. The note with it: mean of both orientations.

A further test concerns the target T33, P2-AA-1HAA-R.
T33 chain: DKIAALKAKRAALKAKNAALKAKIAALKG
The experiment in a line: two-hybrid library CCmax. The note with it: mean of both orientations.

The target in the next test is T34, P2-AA-1HAA-S.
T34 chain: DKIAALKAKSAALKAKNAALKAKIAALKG
As to the kind of experiment: two-hybrid library CCmax. The conditions noted are these: mean of both orientations.

In another test the target is T35, P2-AA-1HAA-T.
T35 chain: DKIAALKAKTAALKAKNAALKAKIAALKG
The experiment in a line: two-hybrid library CCmax. The note with it: mean of both orientations.

In another test the target is T36, P2-AA-1HAA-V.
T36 chain: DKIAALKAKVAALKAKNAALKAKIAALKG
As to the kind of experiment: two-hybrid library CCmax. The note with it: mean of both orientations.

The next test concerns the target T37, P2-AA.
T37 chain: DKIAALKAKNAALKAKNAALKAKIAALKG
The experiment in a line: two-hybrid library CCmax. The conditions noted are these: mean of both orientations.

For the molecule DKIQELKKENEELKREIWELEKKNQELKR [4H2760-bH], the interaction score was 1.46 with 4H2760-bH; 0.64 in the test with 4H2859-bH; -0.365 with 4H2931-bH; 0.73 with 4H3041-bH; 1.12 with 4H3297-bH; 0.427 in the test with 4H3364-bH. Further, the interaction score is 0.571 with 4H3381-bH; 0.171 in the test with 4H349-bH; -1.45 with 4H40-bH; -0.277 with 4H4073-bA; -1.85 with 4H56-bH; -0.92 with 4H730-bH. Further, the interaction score with 4H796-bH is 0.41; with 4H932-bH it was -1.86; with 4H949-bH, -0.189; with O16-bN, 0.693.
With DKNAQLEQKIAELKQENAELEWKIAQLKQ [4H3414-bA], the interaction score in the test with 4H3414-bA was 0.915; in the test with 4H3631-bA it was 0.00557; with 4H3638-bA, 1.02; in the test with 4H3817-bA, 0.381; in the test with 4H3974-bA, -0.77; with 4H570-bA, 0.386. The interaction score in the test with 4H584-bA was -0.456; in the test with 4H619-bA it was -1.25; with 4H850-bA, -0.866; with 4H906-bA, -0.43.
In the case of DEIQELEKKIEELEREIWELEKKNQELKR [4H264-bH], the interaction score is 0.678 in the test with 4H264-bH; 0.562 in the test with 4H2760-bH; 1.8 in the test with 4H2859-bH; 0.678 in the test with 4H2931-bH; 1.67 in the test with 4H3010-bA; 1.23 with 4H3041-bH. The interaction score with 4H3297-bH is 1.11; with 4H3364-bH, 0.996; with 4H3381-bH, 1.06; in the test with 4H349-bH, 0.113; with 4H56-bH, -0.538; with 4H730-bH, 0.131. Moreover, the interaction score with 4H796-bH is -0.303; with 4H932-bH it was -0.203; in the test with 4H949-bH, -0.764; with O8-bA, 0.091.
As for DEIAALEAEAAALEAENAALEAEIAALEG [P1-AA-1HAA-A], the interaction score was found to be 1.87 in the test with P2-AA-1HAA-D; 1.86 in the test with P2-AA-1HAA-E; 2.26 with P2-AA-1HAA-I; 1.48 with P2-AA-1HAA-R; 2 in the test with P2-AA-1HAA-S; 1.64 with P2-AA-1HAA-T. Moreover, the interaction score with P2-AA-1HAA-V was found to be 2.11; with P2-AA, 2.29.
